IntAct's records for PubMed 20462497

B1: Interleukin-10 receptor subunit beta (Homo sapiens), Q08334 (parent)
chain: MAWSLGSWLGGCLLVSALGMVPPPENVRMNSVNFKNILQWESPAFAKGNLTFTAQYLSYRIFQDKCMNTTLTECDFSSLSKYGDHTLRVRAEFADEHSDWVNITFCPVDDTIIGPPGMQVEVLADSLHMRFLAPKIENEYETWTMKNVYNSWTYNVQYWKNGTDEKFQITPQYDFEVLRNLEPWTTYCVQVRGFLPDRNKAGEWSEPVCEQTTHDETVPSWMVAVILMASVFMVCLALLGCFALLWCVYKKTKYAFSPRNSLPQHLKEFLGHPHHNTLLFFSFPLSDENDVFDKLSVIAEDSESGKQNPGDSCSLGTPPGQGPQS
partner: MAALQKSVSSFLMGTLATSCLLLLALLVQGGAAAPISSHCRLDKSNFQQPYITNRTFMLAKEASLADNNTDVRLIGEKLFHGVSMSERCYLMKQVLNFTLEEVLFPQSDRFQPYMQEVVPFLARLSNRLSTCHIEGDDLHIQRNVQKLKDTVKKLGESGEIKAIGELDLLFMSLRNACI
B2: Interleukin-10 receptor subunit beta (Homo sapiens), Q08334 (parent)
chain: B1 chain

Variants of: B1
Settings: with il22_human IL22, Q9GZX6

| Variant | effect of a mutation on the interaction |
| --- | --- |
| MAWSLGSWLGGCLLVSALGMVPPPENVRMNSVNFKNILQWESPAFAKGNLTFTAQYLSYRIFQDKCMNTTLTECDFSSLSKAGDHTLRVRAEFADEHSDWVNITFCPVDDTIIGPPGMQVEVLADSLHMRFLAPKIENEYETWTMKNVYNSWTYNVQYWKNGTDEKFQITPQYDFEVLRNLEPWTTYCVQVRGFLPDRNKAGEWSEPVCEQTTHDETVPSWMVAVILMASVFMVCLALLGCFALLWCVYKKTKYAFSPRNSLPQHLKEFLGHPHHNTLLFFSFPLSDENDVFDKLSVIAEDSESGKQNPGDSCSLGTPPGQGPQS [Y82A] | decreasing interaction |

Variants of: B2
Settings: with il10_human IL10, P22301
il10_human IL10, P22301, sequence (P22301 whole entry): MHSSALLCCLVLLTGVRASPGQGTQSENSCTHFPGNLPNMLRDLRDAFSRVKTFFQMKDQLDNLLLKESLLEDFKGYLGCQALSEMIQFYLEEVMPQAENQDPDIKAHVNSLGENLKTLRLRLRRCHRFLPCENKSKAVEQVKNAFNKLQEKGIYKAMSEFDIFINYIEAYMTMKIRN

| Variant | effect of a mutation on the interaction |
| --- | --- |
| MAWSLGSWLGGCLLVSALGMVPPPENVRMNSVNFKNILQWESPAFAKGNLTFTAQYLSYRIFQDKCMNTTLTECDFSSLSKAGDHTLRVRAEFADEHSDWVNITFCPVDDTIIGPPGMQVEVLADSLHMRFLAPKIENEYETWTMKNVYNSWTYNVQYWKNGTDEKFQITPQYDFEVLRNLEPWTTYCVQVRGFLPDRNKAGEWSEPVCEQTTHDETVPSWMVAVILMASVFMVCLALLGCFALLWCVYKKTKYAFSPRNSLPQHLKEFLGHPHHNTLLFFSFPLSDENDVFDKLSVIAEDSESGKQNPGDSCSLGTPPGQGPQS [Y82A] | decreasing interaction |
